The values that follow come from patent publication US20200121703A1 (CLEVELAND CLINIC FOUNDATION, published 2020).

The target of the assay is T1, PAG (protein associated with glycosphingolipid-enriched microdomains) (UniProt Q9NWQ8 1-432).
T1 construct: Endogenous protein of human tumor cell lines, probed by immunoblot in the CD55 immunoprecipitate
T1 sequence (looked up): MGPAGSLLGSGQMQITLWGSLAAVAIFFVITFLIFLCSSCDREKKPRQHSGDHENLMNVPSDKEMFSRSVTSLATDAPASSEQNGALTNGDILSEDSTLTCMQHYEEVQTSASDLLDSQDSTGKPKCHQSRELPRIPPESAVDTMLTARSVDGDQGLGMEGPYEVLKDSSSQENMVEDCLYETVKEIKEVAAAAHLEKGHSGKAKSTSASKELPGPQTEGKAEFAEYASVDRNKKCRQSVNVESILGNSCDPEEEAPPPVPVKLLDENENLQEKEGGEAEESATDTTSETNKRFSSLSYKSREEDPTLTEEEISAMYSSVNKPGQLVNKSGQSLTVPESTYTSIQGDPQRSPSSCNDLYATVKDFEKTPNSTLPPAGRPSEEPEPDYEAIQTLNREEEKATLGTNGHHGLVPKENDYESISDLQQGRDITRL
As to the kind of experiment: co-immunoprecipitation with anti-CD55 antibody from endometrioid CSC lysates, immunoblot for PAG.

Experimental: Membranes were incubated overnight at 4° C. with primary antibodies against CD55 (1:1000) (Santa Cruz, Calif.), CD59 (1:1000) (Abcam), CD46 (1:1000) (Santa Cruz, Calif.), NANOG (1:500) (Cell Signaling), SOX2 (1:500) (Cell Signaling), OCT4 (1:500) (Cell Signaling), ROR2 (1:1000) (BD Biosciences), pJNK1 (1:1000) (T183/Y185) (Cell Signaling), JNK1 (1:1000) (Cell Signaling), p-c-Jun (1:1000) (S73) (Cell Signaling), p-c-Jun (1:1000) (S63) (Cell Signaling), c-Jun (1:1000) (Cell Signaling), pLCK (Y394) (1:1000) (BD Biosciences), LCK (1:1000) (Santa Cruz, Calif.), LIME (1:1000) (Invitrogen), PAG (1:1000) (Genetex), and (3-actin (1:1000) (Cell Signaling). Secondary anti-mouse or anti-rabbit IgG antibodies conjugated to horse radish peroxidase (HRP) (1:2000) (Thermo, Rockford, IL) were used and immunoreactive bands were visualized using the ECL plus from Pierce (Rockford, Ill., USA).
The lysates were spun at 12,000xg for 15 min at 4° C. Supernatants were incubated with rabbit anti-human CD55 primary antibody (SantaCruz, Calif.) and the corresponding antibody control for 1 hour at 4° C. Protein A/G agarose beads (Santa Cruz, Dallas, Tex.) were added to lysates which were subsequently incubated on a rotating mixer overnight at 4° C. The beads were then washed 3-4 times at 4° C., and Laemmli sample buffer was added to the beads and boiled for 5 minutes. […]

B1: CD55 (decay accelerating factor) (other, human, UniProt P08174 35-353, looked up)
chain: DCGLPPDVPNAQPALEGRTSFPEDTVITYKCEESFVKIPGEKDSVICLKGSQWSDIEEFCNRSCEVPTRLNSASLKQPYITQNYFPVGTVVEYECRPGYRREPSLSPKLTCLQNLKWSTAVEFCKKKSCPNPGEIRNGQIDVPGGILFGATISFSCNTGYKLFGSTSSFCLISGSSVQWSDPLPECREIYCPAPPQIDNGIIQGERDHYGYRQSVTYACNKGFTMIGEHSIYCTVNNDEGEWSGPPPECRGKSLTSKVPPTVQKPTTVNVPTTEVSPTSQKTTTKTTTPNAQATRSTPVSRTTKHFHETTPNKGSGTTS
modifications: GPI anchor (glycophosphatidylinositol-anchored to lipid rafts)
notes: Endogenous protein pulled down from 0.5% Triton X-100 cell lysates
Consider B1, for which the binding result is reported as “no binding”.
